Laboratory results reported in patent US20140072613A1 (published 2014).

T1: MKK7β(h) (human, UniProt O14733 1-419, limits assumed)
T1 sequence (looked up): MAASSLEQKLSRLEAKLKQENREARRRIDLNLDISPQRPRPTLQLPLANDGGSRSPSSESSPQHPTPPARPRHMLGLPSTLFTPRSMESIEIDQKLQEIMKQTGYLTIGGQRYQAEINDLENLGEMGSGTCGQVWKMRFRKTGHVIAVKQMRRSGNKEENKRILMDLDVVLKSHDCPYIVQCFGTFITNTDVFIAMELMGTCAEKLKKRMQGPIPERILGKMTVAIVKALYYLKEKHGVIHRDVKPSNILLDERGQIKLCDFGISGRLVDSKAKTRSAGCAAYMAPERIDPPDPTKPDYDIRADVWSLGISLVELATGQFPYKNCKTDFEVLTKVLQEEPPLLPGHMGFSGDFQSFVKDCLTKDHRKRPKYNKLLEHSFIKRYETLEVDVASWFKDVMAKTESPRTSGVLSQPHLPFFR

T2: MRCKβ(h) (human, UniProt Q9Y5S2 1-473, limits assumed)
T2 sequence (looked up): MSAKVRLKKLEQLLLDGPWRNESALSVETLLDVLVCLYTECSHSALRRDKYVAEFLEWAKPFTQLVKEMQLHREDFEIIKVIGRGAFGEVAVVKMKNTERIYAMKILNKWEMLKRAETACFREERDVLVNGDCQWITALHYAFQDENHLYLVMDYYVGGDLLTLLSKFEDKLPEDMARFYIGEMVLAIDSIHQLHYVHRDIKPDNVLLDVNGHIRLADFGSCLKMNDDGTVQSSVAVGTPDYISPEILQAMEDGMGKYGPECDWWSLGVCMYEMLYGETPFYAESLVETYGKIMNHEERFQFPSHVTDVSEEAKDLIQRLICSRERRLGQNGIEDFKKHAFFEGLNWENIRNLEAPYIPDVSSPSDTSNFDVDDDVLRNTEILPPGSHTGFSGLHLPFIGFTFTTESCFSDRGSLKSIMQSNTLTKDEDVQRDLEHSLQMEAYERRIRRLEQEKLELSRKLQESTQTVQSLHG

T3: MuSK(h) (human, UniProt O15146 517-869, limits assumed)
T3 sequence (looked up): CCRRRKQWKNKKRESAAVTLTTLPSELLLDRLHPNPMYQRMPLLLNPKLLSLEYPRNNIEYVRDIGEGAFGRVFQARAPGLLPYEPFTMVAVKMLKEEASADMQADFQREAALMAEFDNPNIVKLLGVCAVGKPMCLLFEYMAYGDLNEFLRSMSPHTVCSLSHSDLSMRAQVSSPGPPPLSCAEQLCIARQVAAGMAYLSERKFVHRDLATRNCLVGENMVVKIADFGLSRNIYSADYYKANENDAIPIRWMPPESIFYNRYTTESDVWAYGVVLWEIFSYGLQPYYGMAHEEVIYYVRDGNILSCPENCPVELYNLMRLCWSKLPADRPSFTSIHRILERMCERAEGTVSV

T4: PKD2(h) (human, UniProt Q9BZL6 1-878)
T4 sequence (looked up): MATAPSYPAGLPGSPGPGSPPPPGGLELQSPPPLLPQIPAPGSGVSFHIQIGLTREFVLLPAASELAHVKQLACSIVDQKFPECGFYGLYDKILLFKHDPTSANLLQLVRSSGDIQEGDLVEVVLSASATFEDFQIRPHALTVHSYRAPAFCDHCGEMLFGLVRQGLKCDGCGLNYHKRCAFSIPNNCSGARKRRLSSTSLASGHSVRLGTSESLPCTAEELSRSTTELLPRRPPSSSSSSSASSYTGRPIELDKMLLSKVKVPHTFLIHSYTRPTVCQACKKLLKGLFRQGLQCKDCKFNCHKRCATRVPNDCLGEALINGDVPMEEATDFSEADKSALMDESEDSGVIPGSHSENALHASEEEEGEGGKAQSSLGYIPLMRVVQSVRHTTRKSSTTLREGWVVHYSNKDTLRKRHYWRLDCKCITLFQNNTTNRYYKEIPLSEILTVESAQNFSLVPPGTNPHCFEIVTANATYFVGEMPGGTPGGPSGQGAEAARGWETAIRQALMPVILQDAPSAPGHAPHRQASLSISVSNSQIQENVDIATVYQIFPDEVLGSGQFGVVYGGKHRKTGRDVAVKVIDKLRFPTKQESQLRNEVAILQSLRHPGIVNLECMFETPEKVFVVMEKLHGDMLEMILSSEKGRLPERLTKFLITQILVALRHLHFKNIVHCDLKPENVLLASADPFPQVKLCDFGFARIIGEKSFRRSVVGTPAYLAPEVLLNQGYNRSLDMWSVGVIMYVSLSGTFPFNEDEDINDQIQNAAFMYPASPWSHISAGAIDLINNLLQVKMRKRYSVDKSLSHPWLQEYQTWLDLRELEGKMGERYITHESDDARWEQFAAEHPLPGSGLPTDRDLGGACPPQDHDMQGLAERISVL

B1: MMI-0300 (peptide)
peptide: FAKLAARLYRKALARQLGVAA
B2: MMI-0400 (peptide)
peptide: KAFAKLAARLYRKALARQLGVAA

How the values were obtained:
Test in all cases: cell-based or functional assay
MKK7β(h) = molecular target: T1, MKK7β(h)
MRCKβ(h) = molecular target: T2, MRCKβ(h)
MuSK(h) = molecular target: T3, MuSK(h)
PDGFRα(V561D)(h) = PDGFRα(V561D)(h) (human, UniProt P16234 550-1089, limits assumed)
PKD2(h) = molecular target: T4, PKD2(h)
PTK5(h) = PTK5(h) (human, UniProt P42685 1-505, limits assumed)
Src(T341M)(h) = Src(T341M)(h) (human, UniProt P12931 1-536, limits assumed)
Tie2(Y897S)(h) = Tie2(Y897S)(h) (human, UniProt Q02763 771-1124, limits assumed)
CLK2(h) = CLK2(h) (human, UniProt P49760 1-499, limits assumed)
cKit(D816V)(h) = cKit(D816V)(h) (human, UniProt P10721 544-976)
cSRC(h) = cSRC(h) (human, UniProt P12931 1-536)
EGFR(T790M)(h) = EGFR(T790M)(h) (human, UniProt P00533 696-1210, limits assumed)

Row | Binder | % activity, 100 µM (MKK7β(h)) [%] | % activity, 100 µM (MRCKβ(h)) [%] | % activity, 100 µM (MuSK(h)) [%] | % activity, 100 µM (PDGFRα(V561D)(h)) [%] | % activity, 100 µM (PKD2(h)) [%] | % activity, 100 µM (PTK5(h)) [%] | % activity, 100 µM (Src(T341M)(h)) [%] | % activity, 100 µM (Tie2(Y897S)(h)) [%] | % activity, 100 µM (CLK2(h)) [%] | % activity, 100 µM (cKit(D816V)(h)) [%] | % activity, 100 µM (cSRC(h)) [%] | % activity, 100 µM (EGFR(T790M)(h)) [%]
1 | B1 | 100 | 83 | 93 | 82 | 33 | 132 | 70 | 83 | 103 | 60 | 26 | 100
2 | B2 | 94 | 71 | 93 | 100 | 25 | 129 | 76 | 87 | 116 | 35 | 14 | 106
